Results published in US20100144822.

Test system: Argyrin A

Substance: purified human erythrocyte derived 20S proteasome
- activity of the caspase-, chymotrypsin- and trypsin-like proteasome activities (fluorogenic peptide substrates): incubation of purified human 20S proteasome with Argyrin A led to a dose dependent inhibition of the caspase, trypsin and chymotrypsin like proteasome activities
